Laboratory results from patent US7244707.

Biological target: cation-independent mannose-6-phosphate (CIM6P) receptor, human (human) (UniProt P11717)
Assay: cell-based or functional assay

Sequence of UniProt P11717 (P11717 41-2491): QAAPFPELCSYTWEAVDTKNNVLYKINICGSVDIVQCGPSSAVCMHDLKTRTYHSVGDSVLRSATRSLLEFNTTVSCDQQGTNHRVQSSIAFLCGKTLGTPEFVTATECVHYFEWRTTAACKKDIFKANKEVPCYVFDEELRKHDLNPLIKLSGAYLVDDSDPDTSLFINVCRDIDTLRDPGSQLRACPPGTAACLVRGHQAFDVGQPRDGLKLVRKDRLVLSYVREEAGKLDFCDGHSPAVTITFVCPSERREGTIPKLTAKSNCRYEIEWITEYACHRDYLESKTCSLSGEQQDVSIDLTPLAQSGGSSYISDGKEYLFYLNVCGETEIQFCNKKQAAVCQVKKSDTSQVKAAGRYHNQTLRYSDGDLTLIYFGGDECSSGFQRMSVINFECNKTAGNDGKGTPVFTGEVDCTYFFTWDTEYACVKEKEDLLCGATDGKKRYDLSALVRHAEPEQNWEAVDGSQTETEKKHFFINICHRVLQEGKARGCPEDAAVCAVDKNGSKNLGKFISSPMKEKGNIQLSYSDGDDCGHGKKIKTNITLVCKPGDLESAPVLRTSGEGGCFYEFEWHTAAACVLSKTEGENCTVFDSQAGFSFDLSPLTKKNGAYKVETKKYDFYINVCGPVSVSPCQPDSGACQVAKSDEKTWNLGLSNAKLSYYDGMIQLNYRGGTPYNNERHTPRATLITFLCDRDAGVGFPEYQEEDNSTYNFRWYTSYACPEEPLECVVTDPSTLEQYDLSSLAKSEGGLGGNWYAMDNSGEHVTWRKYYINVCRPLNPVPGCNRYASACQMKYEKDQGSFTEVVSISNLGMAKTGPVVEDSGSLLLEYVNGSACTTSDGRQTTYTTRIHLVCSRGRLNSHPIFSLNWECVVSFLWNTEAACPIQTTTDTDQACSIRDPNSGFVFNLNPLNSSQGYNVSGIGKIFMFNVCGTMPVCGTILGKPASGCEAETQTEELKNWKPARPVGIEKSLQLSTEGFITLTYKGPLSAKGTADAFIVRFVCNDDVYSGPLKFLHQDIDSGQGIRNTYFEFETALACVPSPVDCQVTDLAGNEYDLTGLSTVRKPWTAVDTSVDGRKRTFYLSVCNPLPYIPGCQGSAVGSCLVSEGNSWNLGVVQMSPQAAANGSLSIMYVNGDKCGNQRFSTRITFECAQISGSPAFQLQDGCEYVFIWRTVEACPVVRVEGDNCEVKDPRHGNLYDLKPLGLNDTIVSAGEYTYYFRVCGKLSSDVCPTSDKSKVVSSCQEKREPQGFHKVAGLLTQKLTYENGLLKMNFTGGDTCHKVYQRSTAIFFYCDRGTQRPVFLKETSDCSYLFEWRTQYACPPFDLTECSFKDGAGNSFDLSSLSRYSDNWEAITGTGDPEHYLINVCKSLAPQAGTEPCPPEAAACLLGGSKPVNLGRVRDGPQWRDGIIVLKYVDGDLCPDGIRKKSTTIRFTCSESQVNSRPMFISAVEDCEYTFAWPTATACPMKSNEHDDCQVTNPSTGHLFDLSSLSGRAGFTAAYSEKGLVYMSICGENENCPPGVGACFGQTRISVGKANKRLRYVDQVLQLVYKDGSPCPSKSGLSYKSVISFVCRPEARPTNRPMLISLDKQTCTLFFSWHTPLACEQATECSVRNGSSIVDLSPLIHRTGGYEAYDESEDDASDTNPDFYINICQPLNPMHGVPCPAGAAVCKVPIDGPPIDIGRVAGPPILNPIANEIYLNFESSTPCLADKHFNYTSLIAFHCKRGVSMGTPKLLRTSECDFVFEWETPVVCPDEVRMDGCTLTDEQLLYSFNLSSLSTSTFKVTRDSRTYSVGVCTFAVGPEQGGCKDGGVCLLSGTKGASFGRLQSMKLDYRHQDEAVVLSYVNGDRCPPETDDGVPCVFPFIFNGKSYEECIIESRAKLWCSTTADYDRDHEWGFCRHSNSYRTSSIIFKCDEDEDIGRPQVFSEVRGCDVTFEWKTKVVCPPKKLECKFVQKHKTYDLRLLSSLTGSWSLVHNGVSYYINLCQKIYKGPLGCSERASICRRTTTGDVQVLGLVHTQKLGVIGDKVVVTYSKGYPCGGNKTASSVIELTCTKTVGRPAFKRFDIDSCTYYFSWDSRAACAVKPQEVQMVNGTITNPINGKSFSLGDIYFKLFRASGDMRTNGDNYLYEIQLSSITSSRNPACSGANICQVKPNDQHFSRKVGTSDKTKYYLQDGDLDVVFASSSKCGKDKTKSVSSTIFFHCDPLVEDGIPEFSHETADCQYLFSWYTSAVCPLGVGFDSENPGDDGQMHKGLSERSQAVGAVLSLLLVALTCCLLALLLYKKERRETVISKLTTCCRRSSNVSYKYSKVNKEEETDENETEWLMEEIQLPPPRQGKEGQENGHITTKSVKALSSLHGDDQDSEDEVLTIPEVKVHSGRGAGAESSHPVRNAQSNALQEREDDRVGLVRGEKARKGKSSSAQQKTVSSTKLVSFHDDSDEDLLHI

Active TGF -1 as % Control (TF1 monocytes, TGF-1 ELISA), 25 nmol/L Leu^27-IGF-II: 12.7 % Control
Substance: Leu^27IGF-II (receptor grade) (from UniProt P01344 25-91) (ligand)
